A value given as a limit tells only on which side of the number the result lay.

The target of this assay is myc–E4orf4 (adenovirus 2 (Ad2)). The experiment in a line: co-IP.

The substance “v-src (from UniProt P00524 1-526) (enzyme)” returned a percent of v-src of the P2 fraction recovered in myc–E4orf4 immune complexes of less than 10%.

The values above are taken from publication PMC2175248.
